Measurements published in the supplement of paper PMC9170038.

The sequences below were run on K4 kissing-loop RNA reporter (assay: apparent KD of K4 kissing-loop reporter; higher = weaker reporter binding). Conditions: Eterna round: R107; input ligand: FMN 200 uM.
Description: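 RNA-MaP round R107: designed RNA switches with theophylline, tryptophan, arginine or FMN aptamers are transcribed on-chip within common flanks. They are titrated with a labelled K4 kissing-loop RNA reporter in RNA-MaP buffer (100 mM Tris pH 7.5, 80 mM KCl, 4 mM MgCl2), without ligand or with the indicated ligand. Median apparent KD per design.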
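Note: bound reporter read as fluorescence of individual clusters on recovered sequencing chips by microscopy, with normalized cluster intensities fitted with a binding model.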

Sequence | apparent KD of K4 kissing-loop reporter [µM]
GUACGCUCUCGAGUGAUGUUCGGUAAUAGAGAGGAUAUCGCUUUUGCGAGAAGGCUCUGAAUGAGGAAACUCGUUCUGAGUGUAC [FMN A 19] | 0.436
UGCCGGAAGGCGAGCGCUCCCACUCCGGAAGGAGCGCCCGUAAGGGCAGGUAGGUCGCCGGAGUGAUGUUCCGGUGGAGGGCUCG [#2 Exclusion - Arginine A Attempt #22 (Inspired by Omei)] | 0.203
AACCUUGUAGUGAUGUUGCAAGGCGCUGAUACCAGUCACAGCCACGACCCUUGGCAGCAGUGGCGUUCAUGAUAAAAUAGAUUAA [theeternabot_sameState_KL_Theo_A_49] | 0.042
UAUUGAUUGUCAGGAUAUCGUAAACGAGUGAUGUUCGUAAAUCGACGAUAGUCGAUAUGAUCUGAACGAGAAGGGACAUUAUUUA [JR_SSFMNB_Sub010] | 0.365
AGUACAAUGGCGGCCGCCACUCAAUGGGCGACCGAAAGGUCGCAUCACUCAGUGAUGUUGAGUGAGAGGACCGGGCCUUUGUACA [Omei KL Tryp B SS B v8] | 0.733
CGGAUGUAGUGAUGUUAUAUUAGAUGUAGACGAGGACCGGUACGGCCGCCACUCGUGACGGCUGCUAGCGCGUUGCGAGGUUUGC [ExTryptoA.Cn] | 0.716
AGAUAGGGCUGAAGGAGCGUCGGAGAAGAGAAGAAGGAAUCCAGUGAUGUUGGAUAGAUCCGACAGGUAGGUCGCAGUUUUAUGA [hbob_SS_Arginine_B_2t139] | 0.125
UAUAUAGUGACGGCCGCCACUAUAUUAAUGUUUAGGUUAGAGUGAUGUUUUGAUUAAUAUUUUUAUAGGACCGGGUUAUAUGUUA [xerrmullin] | 0.563
UAUCGAGUGAUGUUCGAUGUAGUGCAUUCAGAGGAUAUAGGAUGGGCUAGAAGGCUGAAAAGUGCUUCGAGUGAUGUUCGAAGAU [Exclusion FMN A GF 5] | 0.0638
CGAGUCGGUUCAGAUACCAGCCAAUUAGAGUCGAGUGAUGUUCGACAAUGAACGUCCAAAGGCCCUUGGCAGCUGGAUUGGGAAC [Same State Theophylline B GF 20] | 0.157
AGCUGUGGCAGAAGGAGCGGCAGUUAUUCUGAUAGUACUCUGAGUGAUGUUCAGAACGACUGUCAGGUAGGUCGCUGUCACAGCU [#02 K4 Arginine B Exclusion] | 0.252
CGCAGUGAUGUUGCUAUUAUUCUUGAUUAACGAGGACCGGUACGGCCGCCACUCGGUUUCUAUCUGAUCCAGCGUUUUGUUGAGU [#23 K4 Tryptophan A Exclusion] | 0.474
UGACUGGACUGAAGGAGCGGGCGAGACAAAGUCUCGAACUGCUAGUGAUGUUAGCAAAUAACCCAGGUAGGUCGCAGUCUAGUCU | 0.122
CGUGUAAUGUGGAGAUUUGAAAAGGCGCAUCGAGGACCGGUACGGCCGCCACUCGCUACGAGCUAGUGAUGUUGGCUCGUUCGGA [theeternabot_sameState_KL_Trp_A_23] | 0.238
AAGGCACGGCUUCGGCCGUGCCAAAUAGAUACCAGCAUAAUAAUAUGCCCUUGGCAGCUAAAUAUAAAUUCAGUGAUGUUGGAUA [SS Theo A Tesla 2.2] | 0.573
UGAUACCAGACUGAUACCAGCCAGUGAUGUUGGCUAAGCCAAAUAGGAGUCAAAGACUCCGGCCCUUGGCAGCAGUCUGGUAUCU [TheoBX 5 #SwitchBubble #StaticStem] | 0.127
GAAGGUCAAAGACCUUCGUGCACAUCUGAUACCAGUCGCGAAAGCGACCCUUGGCAGCAGGGCAGUGAUGUUGCCAGUGCACAAA [Omei KL Theo A SS A v4] | 0.255
UGACACUCAACGGCCGCCACUACCGUCGCCGAAUUCCGCAGUGAUGUUGCGAUCCUCCGAUUGUCUAGGACCGGGUUGUUUGGGC [theeternabot_exclusion_KL_Trp_B_43] | 0.181
AUCCAUAGUGAUGUUGUGAGCGGAGGCACCAAGGAUAUUGCCAGCCCAAGAAGGUGGGUCCCACACACCAGGCAUACAAGUCCGG [theeternabot_exclusion_KL_FMN_A_43] | 1.04
GGAUAGGAUAGAGGAUAUGGUAGUGAUGUUACCAAACUGGUUAAACAUGUCAGAAAACUGGCAUGACCAGAAGGCUGUCCUAUCG [FmnBX 27 U9] | 0.102
UGGAGUUGACGAAAAGUCAACUCCUGAGAUCGAGGACCGGUACGGCCGCCACUCGAGCUAACUGCGAGUGAUGUUCGAAAAUAAA [#OpenEnded 1 - Direct theophylline transfer] | 0.191

Sequence | apparent KD of K4 kissing-loop reporter [µM]
AAAAUAAACCAGUGAUGUUGGUGUCCGGAUACCAGCGAUAAUCAUCGCCCUUGGCAGCCGCGGACGUACAAAAUAAGUACGUCCU [MatMod 13 - Jieux - Same State - Theophylline A] | 0.457
AGACUACCACACUGUCAAUAGACAGUGUACUAGGAUAUGCUGAUAAGCAGAAGGAGUGAUGUUCCUAGGUAGUCAAUAAAAUAAU [FmnAX 13 U28] | 0.439
UCCUAGGCUCGAAAGAGCCUAGGAUGGACUCAGGAUAUCCGGAAACGGAGAAGGGAGUCACUAGUGAUGUUAGGGACUCCCUAAC | 0.302
AAUAUAGUGAUGUUAUAUAAGAAGGAGUUACGAGGACCGGUACGGCCGCCACUCGAAACGAGUGAAGAAGGAGGAAGGAGGAGGA [SSTRyptA.A] | 0.479
UUAUAUACGAGUGAUGUUCGUUAUUUAUCAGAGGAUAUGCUUAAAUGCAGAAGGCUGUAUUUCUAUUUGAUAUUAAAUUUUAUAA [JR_Nu3_ExcFMNA_Sub026] | 0.0908
UGGACCUGACUCGAUAAGAGUCAAUGAGAUACCAGUGACGAAAGUCACCCUUGGCAGCUCCUGCCAGUGAUGUUGGUAAGGUCCU [#SwitchBubble 4 #StaticStem] | 0.416
UGACAUUGCUCAGAUACCAGACAUGAGCAUCAGCCAUGUGCCAACGUACAAAUAAUAAAUGUCCCUUGGCAGCUGAGCAAUGUCU [TheoBX 15] | 0.0674
UACAUCGAGCAGAGUGAUGUUUUGUGCGAUACCAGCAAGUGCAAGUGCCCUUGGCAGCGCAAGCGGUUGUAUGUAGGACCGGACG [theeternabot_exclusion_KL_Theo_A_21] | 0.433
GCAGUGAUGUUGCGGAUGUACAGUGGCGUGCGAGGACCGGUACGGCCGCCACUCGUACAGAACAAGCUAAUACAUCGAUAGGUGA [whbob_SS_Tryp_A_m1] | 0.493
CUCUAGGCGCUCGCGUGAGUGAUGUUUACGCGAGGACCGGUACGGCCGCCACUCGCAGACUGGGUGUAAGCGGAGCUGUAUGCCC [theeternabot_exclusion_KL_Trp_A_12] | 0.277
UGACUGGAUGGAAGGAGCGCUAAACUCCUAGUGAUGUUAGGGACAUGAGGCAAAGCCUUGAAGCAGGUAGGUCGCCAUCUAGUCU [FiskerMod 27 - Jieux - Same State - Arginine B] | 0.233
UGAUAGGACAGAAGGAGCGGUAGUGAUGUUACCAAAAGUAUAAGGUGUCAAAAGACACCCUGCCAGGUAGGUCGCUGUCCUAUCU | 0.157
AAGCAGUCUCUCGAAGCCAUCGAAGAUGGGCGAGGACCGGUACGGCCGCCACUCGGAGUGAUGUUCCGAAGACUGCAAAAUAAAA [MatMod 10 - Jieux - Exclusion - Tryptophan A] | 0.281
AGUGCACUGUCAGGAUAUAUACAGUGAUGUUGUGUAUGUCAGCAAGUCAAAGACUUGCUUUUCUGUGUAGAAGGGACUGUGUACA [Omei KL FMN B Exc A v2] | 0.387
UGAUAGGACAGAAGGAGCGGUAGUGAUGUUACCAAAAGGGUAAGGUGUCAAAAGACACCCUACCAGGUAGGUCGCUGUCCUAUCU | 0.11
GAUGUAGAGGCGGCCGCCACUAGUGAUGUUAGUGAUGUUUGAUACUGUAUAUAUCGGCGUGUAGAUAGGACCGGGCCUGAUGGAG [dbbdmullin] | 0.276
UCUGGUAUAUCUGAUACCAGAGUAUAGUAUCAAUUGAAUAUGGAGUGAUGUUCCAUACAACUCCCUUGGCAGCAGAUCUUCCUCU [Same State Theophylline B GF 23] | 0.145
UGGAUAUAGUUUAGUCUGGUGAGGUCAGAUACCAGACUAGCGAUAGUCCCUUGGCAGCUGAUUAUGAUUGAGUGAUGUUCAAUCG [Theo A Ex t9] | 0.187
GAAUUAAUGUCUUUAAUAUAAUAAUCAGAUACCAGUGAUUUGUGACACCCUUGGCAGCUGUAUAGAGUGAUGUUCUUAUACAUAA [#12 K4 Theophylline A Exclusion] | 0.352
AACGUGGCCAAAGGAUAUCUCCCUACGUCGUUGCAUCUACCUCUGUUUGCUCUGAGUGAUGUUUGGAGAGAAGGUUGAGGCGAUU [theeternabot_exclusion_KL_FMN_B_29] | 0.532
CCAAGCGUCAGCGAUACCAGAAUUCUAGUGAUGUUAGGUUCUGUCAUUGUACUAGCAGUGUUCCCUUGGCAGCGCGUGAUAGGCA [theeternabot_exclusion_KL_Theo_B_16] | 0.17

Same assay, conditions: Eterna round: R107; input ligand: arginine 13.2 mM

Sequence | apparent KD of K4 kissing-loop reporter [µM]
GUACGCUCUCGAGUGAUGUUCGGUAAUAGAGAGGAUAUCGCUUUUGCGAGAAGGCUCUGAAUGAGGAAACUCGUUCUGAGUGUAC [FMN A 19] | 0.362
UGCCGGAAGGCGAGCGCUCCCACUCCGGAAGGAGCGCCCGUAAGGGCAGGUAGGUCGCCGGAGUGAUGUUCCGGUGGAGGGCUCG [#2 Exclusion - Arginine A Attempt #22 (Inspired by Omei)] | 0.128
AACCUUGUAGUGAUGUUGCAAGGCGCUGAUACCAGUCACAGCCACGACCCUUGGCAGCAGUGGCGUUCAUGAUAAAAUAGAUUAA [theeternabot_sameState_KL_Theo_A_49] | 0.0415
UAUUGAUUGUCAGGAUAUCGUAAACGAGUGAUGUUCGUAAAUCGACGAUAGUCGAUAUGAUCUGAACGAGAAGGGACAUUAUUUA [JR_SSFMNB_Sub010] | 0.311
AGUACAAUGGCGGCCGCCACUCAAUGGGCGACCGAAAGGUCGCAUCACUCAGUGAUGUUGAGUGAGAGGACCGGGCCUUUGUACA [Omei KL Tryp B SS B v8] | 0.497
CGGAUGUAGUGAUGUUAUAUUAGAUGUAGACGAGGACCGGUACGGCCGCCACUCGUGACGGCUGCUAGCGCGUUGCGAGGUUUGC [ExTryptoA.Cn] | 0.488
AGAUAGGGCUGAAGGAGCGUCGGAGAAGAGAAGAAGGAAUCCAGUGAUGUUGGAUAGAUCCGACAGGUAGGUCGCAGUUUUAUGA [hbob_SS_Arginine_B_2t139] | 0.127
UAUAUAGUGACGGCCGCCACUAUAUUAAUGUUUAGGUUAGAGUGAUGUUUUGAUUAAUAUUUUUAUAGGACCGGGUUAUAUGUUA [xerrmullin] | 0.314
UAUCGAGUGAUGUUCGAUGUAGUGCAUUCAGAGGAUAUAGGAUGGGCUAGAAGGCUGAAAAGUGCUUCGAGUGAUGUUCGAAGAU [Exclusion FMN A GF 5] | 0.0492
CGAGUCGGUUCAGAUACCAGCCAAUUAGAGUCGAGUGAUGUUCGACAAUGAACGUCCAAAGGCCCUUGGCAGCUGGAUUGGGAAC [Same State Theophylline B GF 20] | 0.0611
